Measurements from paper doi:10.1101/2022.08.08.503151.

Biological target: 80S ribosome (yeast) (S. cerevisiae (endogenous in TB50a)) (UniProt P14126)
Test: co-sedimentation

UniProt P14126, sequence (P14126 whole entry, looked up): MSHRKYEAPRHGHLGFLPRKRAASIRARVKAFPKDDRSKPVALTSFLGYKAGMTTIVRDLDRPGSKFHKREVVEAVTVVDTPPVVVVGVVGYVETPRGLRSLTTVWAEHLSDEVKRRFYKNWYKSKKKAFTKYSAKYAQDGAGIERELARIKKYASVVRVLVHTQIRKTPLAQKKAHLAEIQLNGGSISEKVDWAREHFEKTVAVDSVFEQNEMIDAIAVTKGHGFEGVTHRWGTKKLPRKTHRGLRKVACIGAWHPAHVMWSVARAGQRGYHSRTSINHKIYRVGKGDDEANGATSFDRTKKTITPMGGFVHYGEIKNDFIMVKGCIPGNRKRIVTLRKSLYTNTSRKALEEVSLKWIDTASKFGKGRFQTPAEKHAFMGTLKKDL

fold accumulation in the 80S fraction, without CHX against CHX-treated: 3 fold
B1: Stm1 (suppressor of target of Myb protein 1) (natural protein)
chain: MSNPFDLLGNDVEDADVVVLPPKEIVKSNTSSKKADVPPPSADPSKARKNRPRPSGNEGAIRDKTAGRRNNRSKDVTDSATTKKSNTRRATDRHSRTGKTDTKKKVNQGWGDDKKELSAEKEAQADAAAEIAEDAAEAEDAGKPKTAQLSLQDYLNQQANNQFNKVPEAKKVELDAERIETAEKEAYVPATKVKNVKSKQLKTKEYLEFDATFVESNTRKNFGDRNNNSRNNFNNRRGGRGARKGNNTANATNSANTVQKNRNIDVSNLPSLA
